The target in assay [1] is EGFR-GGS, chimeric receptor in which the JM domain is replaced by a (GGS)10 sequence. The experiment in a line: flow cytometry on cells.
The target of assay [2] is EGFR-GGS tagged at the C-terminus with a fluorescent protein (EGFR-GGS-YFP and EGFR-GGS-mCherry, co-expressed). The assay is described as follows: FRET or BRET. Background: Bioluminescence resonance energy transfer reports proximity on the nanometre scale.
Assay [3] concerns the target EGFR-GGS, chimeric receptor in which the JM domain is replaced by a (GGS)10 sequence. The experiment in a line: cross-linking.

The stoichiometry N is the number of molecules, sites or subunits per partner or assembly.

Turning to Alexa Fluor 488-labeled EGF (ligand), the ratio of EGFR-GGS-bound ligand to EGFR-bound ligand in assay [1] stood at 1. In turn, “EGFR-GGS tagged at the C-terminus with a fluorescent protein (EGFR-GGS-YFP and EGFR-GGS-mCherry, co-expressed) (receptor)” gave an FRET efficiency in assay [2] of 0.25.

“EGFR-GGS, chimeric receptor in which the JM domain is replaced by a (GGS)10 sequence”: in assay [3], the cross-linked fraction (no ligand) stood at 0.42, the cross-linked fraction (with EGF) was determined as 0.64 and the stoichiometry N came to 2.

The values are drawn from PMC3497011.
